This assay deals with T1, His-MBP-tagged SSRP1 (1–709) (human, UniProt Q08945 1-709).
T1 construct: SSRP1 subunit of human FACT, residues 1-709; The tag was still on SSRP1 when the complex with Spt16 was purified on Nickel-NTA; it was cut afterwards; also called structure-specific recognition protein 1; source: E. coli BL21(DE3), purified (Nickel-NTA)
As to the kind of experiment: pull-down; purified Spt16 and His-MBP-tagged SSRP1 mixed at a 1:1 molar ratio, complex purified on Nickel-NTA by the tag of SSRP1; after TEV cleavage again Nickel-NTA and Superdex 200 SEC; 50 mM NaH2PO4-Na2HPO4, 300 mM NaCl, pH 7.5. The following applies: both partners purified.

T1 sequence (Q08945 whole entry, the tested form may be a part): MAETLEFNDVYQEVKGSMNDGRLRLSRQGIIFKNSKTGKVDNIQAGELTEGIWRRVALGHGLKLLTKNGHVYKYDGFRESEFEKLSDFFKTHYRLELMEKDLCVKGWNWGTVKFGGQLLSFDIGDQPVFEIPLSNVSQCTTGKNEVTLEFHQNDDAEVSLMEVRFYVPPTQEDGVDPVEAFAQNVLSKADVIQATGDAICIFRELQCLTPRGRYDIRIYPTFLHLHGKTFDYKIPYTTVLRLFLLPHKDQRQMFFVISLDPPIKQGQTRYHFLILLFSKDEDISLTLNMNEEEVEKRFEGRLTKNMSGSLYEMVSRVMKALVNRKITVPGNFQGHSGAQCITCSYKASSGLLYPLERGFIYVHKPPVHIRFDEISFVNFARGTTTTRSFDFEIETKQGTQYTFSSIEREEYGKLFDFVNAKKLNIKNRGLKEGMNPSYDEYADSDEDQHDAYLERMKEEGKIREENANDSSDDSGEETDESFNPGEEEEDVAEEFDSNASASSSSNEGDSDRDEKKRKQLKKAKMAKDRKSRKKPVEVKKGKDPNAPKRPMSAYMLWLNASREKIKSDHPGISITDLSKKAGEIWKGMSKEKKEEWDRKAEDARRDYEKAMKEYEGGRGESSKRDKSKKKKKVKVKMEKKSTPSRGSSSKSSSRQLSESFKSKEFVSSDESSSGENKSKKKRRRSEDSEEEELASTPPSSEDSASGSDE

B1: Spt16 (501–1006) (domain or fragment, human, UniProt Q9Y5B9 501-1006, looked up)
chain: QIQKARKSNVSYKNPSLMPKEPHIREMKIYIDKKYETVIMPVFGIATPFHIATIKNISMSVEGDYTYLRINFYCPGSALGRNEGNIFPNPEATFVKEITYRASNIKAPGEQTVPALNLQNAFRIIKEVQKRYKTREAEEKEKEGIVKQDSLVINLNRSNPKLKDLYIRPNIAQKRMQGSLEAHVNGFRFTSVRGDKVDILYNNIKHALFQPCDGEMIIVLHFHLKNAIMFGKKRHTDVQFYTEVGEITTDLGKHQHMHDRDDLYAEQMEREMRHKLKTAFKNFIEKVEALTKEELEFEVPFRDLGFNGAPYRSTCLLQPTSSALVNATEWPPFVVTLDEVELIHFERVQFHLKNFDMVIVYKDYSKKVTMINAIPVASLDPIKEWLNSCDLKYTEGVQSLNWTKIMKTIVDDPEGFFEQGGWSFLEPEGEGSDAEEGDSESEIEDETFNPSEDDYEEEEEDSDEDYSSEAEESDYSKESLGSEEESGKDWDELEEEARKADRESRY
notes: Spt16 subunit of human FACT, residues 501-1006 (without the N-terminal domain); His-MBP tag cut with TEV protease and removed by SEC before mixing with SSRP1; also called suppressor of Ty 16; Spt16 without the NTD; source: E. coli BL21(DE3), purified (Nickel-NTA, TEV cleavage, Superdex 200 SEC)
For B1, the binding result is “binds”.

The values are drawn from publication PMC5295774, “Stabilization of Nucleosomes by Histone Tails and by FACT Revealed by spFRET Microscopy” (Cancers, 2017).
